# Numbering of substitutions follows the chain as printed. Where two headings read alike, the source gives them in different places.
# T1: CDH6 wt (human, UniProt P55285 54-615, limits assumed)
# T1 sequence: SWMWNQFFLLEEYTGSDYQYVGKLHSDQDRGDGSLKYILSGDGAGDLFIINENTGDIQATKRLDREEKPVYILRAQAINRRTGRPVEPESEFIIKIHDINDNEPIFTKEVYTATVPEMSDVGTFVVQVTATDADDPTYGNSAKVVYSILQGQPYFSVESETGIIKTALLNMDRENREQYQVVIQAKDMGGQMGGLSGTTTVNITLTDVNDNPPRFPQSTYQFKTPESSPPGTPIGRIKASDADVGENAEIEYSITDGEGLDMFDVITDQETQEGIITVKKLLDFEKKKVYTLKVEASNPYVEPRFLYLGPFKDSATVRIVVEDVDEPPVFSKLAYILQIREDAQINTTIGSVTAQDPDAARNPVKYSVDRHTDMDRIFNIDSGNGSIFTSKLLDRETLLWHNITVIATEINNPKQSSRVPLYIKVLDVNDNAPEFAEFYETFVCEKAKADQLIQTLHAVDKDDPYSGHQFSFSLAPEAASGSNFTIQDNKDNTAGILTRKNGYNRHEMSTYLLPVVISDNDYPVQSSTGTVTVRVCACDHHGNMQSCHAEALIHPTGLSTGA
# T2: human CDH6 expressed on cells (human, UniProt P55285 54-790)
# T2 sequence: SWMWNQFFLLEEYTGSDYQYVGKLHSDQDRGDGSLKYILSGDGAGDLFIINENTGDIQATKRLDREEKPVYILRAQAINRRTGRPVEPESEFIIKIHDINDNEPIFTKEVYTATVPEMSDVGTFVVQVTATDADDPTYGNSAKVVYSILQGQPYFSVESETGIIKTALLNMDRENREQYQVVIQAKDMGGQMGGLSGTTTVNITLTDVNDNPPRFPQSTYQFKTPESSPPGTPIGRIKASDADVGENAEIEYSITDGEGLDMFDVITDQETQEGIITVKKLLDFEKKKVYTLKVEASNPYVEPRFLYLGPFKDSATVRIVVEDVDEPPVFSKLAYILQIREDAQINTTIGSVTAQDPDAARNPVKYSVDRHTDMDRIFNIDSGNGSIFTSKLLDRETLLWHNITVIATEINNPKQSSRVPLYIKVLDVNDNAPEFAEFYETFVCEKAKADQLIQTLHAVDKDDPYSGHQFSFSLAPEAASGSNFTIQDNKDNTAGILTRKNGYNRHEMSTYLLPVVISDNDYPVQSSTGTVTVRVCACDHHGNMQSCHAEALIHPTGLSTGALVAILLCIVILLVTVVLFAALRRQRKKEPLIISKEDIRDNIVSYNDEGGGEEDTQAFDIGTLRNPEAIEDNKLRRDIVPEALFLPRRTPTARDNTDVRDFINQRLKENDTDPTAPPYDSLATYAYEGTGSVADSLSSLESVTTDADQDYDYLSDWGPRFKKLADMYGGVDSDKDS
# T3: CDH6-N573A (human, UniProt P55285 54-615)
# T3 sequence: T1 sequence with N520A
# T4: CDH6-Y575A (human, UniProt P55285 54-615)
# T4 sequence: T1 sequence with Y522A
# T5: CDH6-D574A (human, UniProt P55285 54-615)
# T5 sequence: T1 sequence with D521A
# B1: NOV0720 (antibody, human IgG1, lambda, V domains shown)
# VH: QVQLQQSGPGLVKPSQTLSLTCAISGDSVSSNSAGWNWIRQSPSRGLEWLGRIYYRSKWYNDYAVSVKSRITINPDTSKNQFSLQLNSVTPEDTAVYYCAREKYTVSFYDFFDYWGQGTLVTVSS
# VL: DIELTQPPSVSVSPGQTASITCSGDNIGSMTAHWYQQKPGQAPVLVIYDKNERPSGIPERFSGSNSGNTATLTISGTQAEDEADYYCQSWDDSYNSVVFGGGTKLTVLG
# B2: NOV0710 (antibody, human IgG1, kappa, V domains shown)
# VH: QVQLLESGGGLVQPGGSLRLSCAASGFTFSSYAMSWVRQAPGKGLEWVSVIRSSGSSTYYADSVKGRFTISRDNSKNTLYLQMNSLRAEDTAVYYCARGGGYFDYWGQGTLVTVSS
# VL: DIQMTQSPSSLSASVGDRVTITCRASQSISLWLNWYQQKPGKAPKLLIYAASTLQSGVPSRFSGSGSGTDFTLTISSLQPEDFATYYCQQYYTSPYTFGQGTKVEIKR
# Columns and labels:
# CDH6 wt [1] = target: T1, CDH6 wt; experiment: ELISA on coated CDH6-wt, O.D.
# [2] = target: T2, human CDH6 expressed on cells; experiment: FACS histogram on OVCAR3 cells
# [3] = target: T2, human CDH6 expressed on cells; experiment: FACS histogram on OVCAR8-CDH6+ cells
# CDH6-N573A [4] = target: T3, CDH6-N573A; experiment: ELISA on coated CDH6-N573A, O.D.
# CDH6-Y575A [5] = target: T4, CDH6-Y575A; experiment: ELISA on coated CDH6-Y575A, O.D.
# CDH6 wt [6] = target: T1, CDH6 wt; experiment: ELISA on coated CDH6-wt, O.D.; remark: listed apart in the source
# CDH6-N573A [7] = target: T3, CDH6-N573A; experiment: ELISA on coated CDH6-N573A, O.D.; remark: listed apart in the source
# CDH6-D574A [8] = target: T5, CDH6-D574A; experiment: ELISA on coated CDH6-D574A, O.D.
# CDH6-Y575A [9] = target: T4, CDH6-Y575A; experiment: ELISA on coated CDH6-Y575A, O.D.; remark: listed apart in the source
# CDH6-D574A [10] = target: T5, CDH6-D574A; experiment: ELISA on coated CDH6-D574A, O.D.; remark: listed apart in the source
# CDH6 wt [11] = target: T1, CDH6 wt; experiment: ELISA on coated CDH6-wt, O.D.; remark: listed apart in the source
# CDH6-N573A [12] = target: T3, CDH6-N573A; experiment: ELISA on coated CDH6-N573A, O.D.; remark: listed apart in the source
molecule,measurement,setting,value
human isotype control IgG (antibody),EC50,CDH6 wt [1],0.3 µM
same,Geom. Mean Fluorescence,[2],57.9
same,Geom. Mean Fluorescence,[3],54.2
same,EC50,CDH6-N573A [4],0.545 µM
non-binding control ADC (antibody),Geom. Mean Fluorescence,[2],60.4
same,Geom. Mean Fluorescence,[3],56.5
B1,EC50,CDH6-Y575A [5],7.2 µM
same,EC50,CDH6 wt [6],7.11 µM
same,EC50,CDH6-N573A [7],6.74 µM
same,EC50,CDH6-D574A [8],7.58 µM
B2,EC50,CDH6-Y575A [9],0.287 µM
same,EC50,CDH6-D574A [10],151 µM
same,EC50,CDH6 wt [11],0.2 µM
same,EC50,CDH6-N573A [12],459 µM

# — patent US20160046711A1 (Novartis, published 2016)
